± gives the standard deviation.
Assay: protein stability index of a GFP-peptide fusion (GPS, HEK-293T) (PSI 1-6); higher = more stable
[1] = treatment: DMSO, c terminus: a fixed tail appended
[2] = treatment: MLN4924 1 uM, 8 h, c terminus: a fixed tail appended
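Note: 24-mer peptide tiles fused after GFP, lentivirally expressed, FACS-sorted into six equal bins by GFP/DsRed ratio, decoded by Illumina sequencing, PSI is the read-weighted mean bin number.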

Sequence: EFFRESVNRFGTYPALASKNGKKW [ACSBG2]
- protein stability index [1]: 2.87 ± 0.45
- protein stability index [2]: 3.2 ± 0.28

Sequence: ATALAPLQTDHYAALLGSNSESWG [SPSB2]
- protein stability index [1]: 3.31 ± 0.32
- protein stability index [2]: 3.28 ± 0.14

Sequence: GDETAHRIDSQFLIGDTLLVAPVL [MYORG]
- protein stability index [1]: 2.94 ± 0.3
- protein stability index [2]: 2.85 ± 0.34

Sequence: ISSSSFGAEPSAPGGGGSPGACPA [RTN3]
- protein stability index [1]: 4.72 ± 0.51
- protein stability index [2]: 4.97 ± 0.089

Sequence: AQTFLFQGQPVVNRPLSLKDQQTF [TRADD]
- protein stability index [1]: 3.25 ± 0.26
- protein stability index [2]: 3.39 ± 0.23

Sequence: LVKNLKDTLGLGKTRRKTSARDAS [NCK2]
- protein stability index [1]: 3.19 ± 0.38
- protein stability index [2]: 3.35 ± 0.3

Sequence: DNAEAAFSDDEEDLNSKGKKREFR [INTS3]
- protein stability index [1]: 5.51 ± 0.16
- protein stability index [2]: 5.47 ± 0.2

Sequence: SGKVSSSSSSLGNKLQTLSPSHKG [ZC2HC1A]
- protein stability index [1]: 4.31 ± 0.14
- protein stability index [2]: 4.26 ± 0.091

Sequence: NAKAHCGATALHFAAEAGHIDIVK [FEM1B]
- protein stability index [1]: 2.59 ± 0.36
- protein stability index [2]: 2.62 ± 0.17

Sequence: LTRRLAHGEELRVSARSREGRGGR [HAGHL]
- protein stability index [1]: 4.87 ± 0.22
- protein stability index [2]: 4.99 ± 0.079

Sequence: DQIRQGIQLKSVADGQESTPPTPA [WASL]
- protein stability index [1]: 5.33 ± 0.16
- protein stability index [2]: 5.51 ± 0.15

Sequence: ELSNILNLSYKQVKTWFQNQRMKS [NANOGP8]
- protein stability index [1]: 2.63 ± 0.49
- protein stability index [2]: 2.38 ± 0.43

Sequence: LMHIAHIAELLEVFDLRMMVANIL [RHOBTB2]
- protein stability index [1]: 2.48 ± 0.4
- protein stability index [2]: 2.31 ± 0.32

Sequence: ICDLARSIDFNKDGHIDINEFLEA [PPEF2]
- protein stability index [1]: 3.6 ± 0.31
- protein stability index [2]: 4.04 ± 0.21

Sequence: VMEIQKQIEKKEKKLHKIQNKAQR [TAF7L]
- protein stability index [1]: 4.13 ± 0.088
- protein stability index [2]: 4.36 ± 0.21

Sequence: EPAPGSALSPAGVCGGAQRPGHLP [CDC25B]
- protein stability index [1]: 4.6 ± 0.15
- protein stability index [2]: 4.49 ± 0.21

Sequence: GVEIDEINVYGNTALHIACYNGQD [ANKRD44]
- protein stability index [1]: 3.58 ± 0.19
- protein stability index [2]: 3.55 ± 0.33

Sequence: VSTWFANARRRLKKENKMTWAPKN [IRX6]
- protein stability index [1]: 2.57 ± 0.22
- protein stability index [2]: 2.75 ± 0.13

Sequence: APWLSLFPPEGNMEDKEMTGPQLP [ZNF263]
- protein stability index [1]: 4.27 ± 0.27
- protein stability index [2]: 4.75 ± 0.28

Sequence: GLNSSWVELPMNSSNGNDNGNGKN [BNIP3L]
- protein stability index [1]: 5.11 ± 0.42
- protein stability index [2]: 5.54 ± 0.2

Sequence: DFPDILEQQRKLETYLQNHFAEEE [TENT5C]
- protein stability index [1]: 4.45 ± 0.27
- protein stability index [2]: 4.56 ± 0.22

Sequence: RVQAAAFGPGQTLLSSVHVLDLEA [ALKBH7]
- protein stability index [1]: 3.02 ± 0.42
- protein stability index [2]: 3.3 ± 0.32

Sequence: ITAGAHRLWSHRSYKARLPLRLFL [SCD]
- protein stability index [1]: 2.6 ± 0.63
- protein stability index [2]: 2.47 ± 0.64

Sequence: GLLWLLLGSAGAQYEKYSFRGFPP [P3H4]
- protein stability index [1]: 3.08 ± 0.098
- protein stability index [2]: 3.71 ± 0.62

Sequence: DLNNCKNNLEPILEGYISNLRKQL [KRT71]
- protein stability index [1]: 2.58 ± 0.21
- protein stability index [2]: 2.76 ± 0.5

Sequence: KLDPTLSSCFFIESCGAQVPVEGS
- protein stability index [1]: 3.02 ± 0.41
- protein stability index [2]: 3.04 ± 0.5

Sequence: FAQADALKGTLVSTLKEVKPTVFI [ACSBG2]
- protein stability index [1]: 2.4 ± 0.52
- protein stability index [2]: 3.04 ± 0.86

Sequence: TNCWLIRELNLPFGGMKSSGIGRE [ALDH8A1]
- protein stability index [1]: 2.31 ± 0.41
- protein stability index [2]: 2.29 ± 0.33

Sequence: DQNASTHTPQSSVKTSVPSSKSSG [CLINT1]
- protein stability index [1]: 5.02 ± 0.24
- protein stability index [2]: 5.2 ± 0.14

Sequence: HPRALPPDARPHRRPHELLPVGGR [HAGHL]
- protein stability index [1]: 4.48 ± 0.12
- protein stability index [2]: 4.33 ± 0.23

Sequence: KPPYSYATLICMAMQASKATKITL [FOXJ1]
- protein stability index [1]: 2.78 ± 0.57
- protein stability index [2]: 2.8 ± 0.53

Sequence: EAECEKSSATTYFWYREALDISDS [SLC6A17]
- protein stability index [1]: 3.94 ± 0.36
- protein stability index [2]: 3.83 ± 0.29

Sequence: RALLRRFPRMLLVDRLPGLQGALD [ZSWIM9]
- protein stability index [1]: 2.49 ± 0.25
- protein stability index [2]: 2.52 ± 0.24

Sequence: IGGVATVVCQPNEFIMPDSAVVGD [SEPHS2]
- protein stability index [1]: 3.72 ± 0.34
- protein stability index [2]: 3.76 ± 0.44

Sequence: EPATPEEGEPATQRQDPAAAQEGE [GAGE1]
- protein stability index [1]: 5.62 ± 0.13
- protein stability index [2]: 5.61 ± 0.19

Sequence: RCLHMDQLQDFNIPQAGGWGPWGP [ADAMTS4]
- protein stability index [1]: 2.24 ± 0.35
- protein stability index [2]: 2.24 ± 0.75

Sequence: LVETNRREVEQWFATQTEELNKQV [KRT33B]
- protein stability index [1]: 4.41 ± 0.21
- protein stability index [2]: 4.49 ± 0.31

Sequence: PQELLQSQDFVGEKLGSGEPSHSV [ATE1]
- protein stability index [1]: 5.11 ± 0.17
- protein stability index [2]: 5.43 ± 0.064

Sequence: LPMWSNQTWNNSTWSNQTQNIQSW [NANOGP8]
- protein stability index [1]: 2.45 ± 0.38
- protein stability index [2]: 2.56 ± 0.27

Sequence: AGSRQALSFEVPPCNYDPEKWIQ
- protein stability index (treatment: DMSO, c terminus: native): 2.69 ± 0.59
- protein stability index (treatment: MLN4924 1 uM, 8 h, c terminus: native): 3.35 ± 0.51

Sequence: MPSTPGFVGYNPYSHLAYNNYRLG [SMARCE1]
- protein stability index [1]: 2.27 ± 0.099
- protein stability index [2]: 2.42 ± 0.23

Sequence: FEPPAPGEGNSSQNSRNKRAVQGP [TNFSF13B]
- protein stability index [1]: 5.3 ± 0.17
- protein stability index [2]: 5.45 ± 0.2

Sequence: AGPAFDSDPEISDVDEDEPGGLVG [PPFIA4]
- protein stability index [1]: 5.19 ± 0.56
- protein stability index [2]: 5.77 ± 0.07

Sequence: LENLCENASTLRTINIKCHVHDPH [FBXO39]
- protein stability index [1]: 3.59 ± 0.27
- protein stability index [2]: 3.59 ± 0.036

Source: the supplement of paper PMC10567573
